The results in this text go back to article PMC12732409.

This assay addresses hyaluronidase from bovine testes (bovine).

With “NGT-M002 (pvFP-5; Perna viridis foot protein-5) (natural protein)”, the hyaluronidase inhibition rate (enzyme activity on hyaluronic acid, absorbance at 600 nm) at 500 μM sample, 1 U/mL hyaluronidase amounted to 91%.
